B1: Regulatory protein SIR4 (Saccharomyces cerevisiae), P11978 (parent)
chain: MPNDNKTPNRSSTPKFTKKPVTPNDKIPEREEKSNEVKTPKIPLFTFAKSKNYSRPSTAIHTSPHQPSDVKPTSHKQLQQPKSSPLKKNNYNSFPHSNLEKISNSKLLSLLRSKTSAGRIESNNPSHDASRSLASFEQTAFSRHAQQQTSTFNSKPVRTIVPISTSQTNNSFLSGVKSLLSEEKIRDYSKEILGINLANEQPVLEKPLKKGSADIGASVISLTKDKSIRKDTVEEKKEEKLNIGKNFAHSDSLSVPKVSAGDSGISPEESKARSPGIAKPNAIQTEVYGINEESTNERLEINQEKPVKLDENSANSTVASALDTNGTSATTETLTSKKIVPSPKKVAIDQDKITLHDEKTLAPSKHQPITSEQKMKEDADLKRMEILKSPHLSKSPADRPQGRRNSRNFSTRDEETTKLAFLVEYEGQENNYNSTSRSTEKKNDMNTSAKNKNGENKKIGKRPPEIMSTEAHVNKVTEETTKQIQSVRIDGRKVLQKVQGESHIDSRNNTLNVTPSKRPQLGEIPNPMKKHKPNEGRTPNISNGTINIQKKLEPKEIVRDILHTKESSNEAKKTIQNPLNKSQNTALPSTHKVTQKKDIKIGTNDLFQVESAPKISSEIDRENVKSKDEPVSKAVESKSLLNLFSNVLKAPFIKSESKPFSSDALSKEKANFLETIASTEKPENKTDKVSLSQPVSASKHEYSDNFPVSLSQPSKKSFANHTEDEQIEKKKICRGRMNTIITHPGKMELVYVSDSDDSSSDNDSLTDLESLSSGESNEIKVTNDLDTSAEKDQIQAGKWFDPVLDWRKSDRELTKNILWRIADKTTYDKETITDLIEQGIPKHSYLSGNPLTSVTNDICSVENYETSSAFFYQQVHKKDRLQYLPLYAVSTFENTNNTEKNDVTNKNINIGKHSQEQNSSSAKPSQIPTVSSPLGFEETKLSTTPTKSNRRVSHSDTNSSKPKNTKENLSKSSWRQEWLANLKLISVSLVDEFPSELSDSDRQIINEKMQLLKDIFANNLKSAISNNFRESDIIILKGEIEDYPMSSEIKIYYNELQNKPDAKKARFWSFMKTQRFVSNMGFDIQKSCEPVSISTSVKPHVVEPEHMADAKIMPKDILQITKKPLMVKNVKPSSPPDVKSLVQLSTMETKTLPEKKQFDSIFNSNKAKIIPGNGKHASENISLSFSRPASYGYFSVGKRVPIVEDRRVKQLDDITDSNTTEILTSVDVLGTHSQTGTQQSNMYTSTQKTELEIDNKDSVTECSKDMKEDGLSFVDIVLSKAASALDEKEKQLAVANEIIRSLSDEVMRNEIRITSLQGDLTFTKKCLENARSQISEKDAKINKLMEKDFQVNKEIKPY

Variants of: B1
Details: with sir3_yeast SIR3, P06701
sir3_yeast SIR3, P06701, sequence (P06701 whole entry): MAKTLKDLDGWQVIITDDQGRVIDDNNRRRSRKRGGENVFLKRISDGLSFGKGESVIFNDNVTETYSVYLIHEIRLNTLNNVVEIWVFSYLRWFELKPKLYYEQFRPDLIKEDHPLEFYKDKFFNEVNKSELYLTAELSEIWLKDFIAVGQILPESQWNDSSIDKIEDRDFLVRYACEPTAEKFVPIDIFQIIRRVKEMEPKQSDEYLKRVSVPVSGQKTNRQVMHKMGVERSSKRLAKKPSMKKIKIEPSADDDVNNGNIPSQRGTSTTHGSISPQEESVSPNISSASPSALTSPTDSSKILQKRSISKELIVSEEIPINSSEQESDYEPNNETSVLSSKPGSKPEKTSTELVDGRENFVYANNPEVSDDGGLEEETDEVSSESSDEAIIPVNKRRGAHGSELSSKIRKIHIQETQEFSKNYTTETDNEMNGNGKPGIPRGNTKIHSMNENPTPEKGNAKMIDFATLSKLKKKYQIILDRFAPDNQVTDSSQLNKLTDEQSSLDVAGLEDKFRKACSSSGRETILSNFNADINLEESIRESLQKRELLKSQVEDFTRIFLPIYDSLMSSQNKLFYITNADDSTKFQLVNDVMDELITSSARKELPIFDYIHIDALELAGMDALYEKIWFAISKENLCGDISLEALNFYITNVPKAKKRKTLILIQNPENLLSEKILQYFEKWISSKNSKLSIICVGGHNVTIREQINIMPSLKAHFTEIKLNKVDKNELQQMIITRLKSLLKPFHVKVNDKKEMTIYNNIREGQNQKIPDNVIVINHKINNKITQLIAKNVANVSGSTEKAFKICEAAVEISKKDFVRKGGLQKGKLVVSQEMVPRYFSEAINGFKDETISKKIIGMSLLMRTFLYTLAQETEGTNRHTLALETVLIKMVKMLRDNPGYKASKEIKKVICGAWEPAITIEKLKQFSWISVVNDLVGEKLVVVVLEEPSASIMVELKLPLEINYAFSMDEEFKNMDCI

effect of a mutation on the interaction	Variant
decreasing interaction	M1307N

Reference: IntAct's records for PubMed 16717101
